Results as given in US8809529B2, “Imidazo[1,2-α]pyrazine derivatives” (Promega Corporation, priority 2010, dated 2014).
Where two headings read alike, the source gives them in different places.

Experiments:
[1] = Stability of coelenterazines in reporter reagent buffer (T90); conditions: time for luminescent signal to decay by 10% at 22° C.; read with OgLuc variant IV lysate
HEK293 cells [2] = experiment: Toxicity of coelenterazines in HEK293 cells (CELLTITER-GLO); conditions: 24 hrs after compound addition
L27V02 enzyme = biological target: T1, L27V02 enzyme (Oplophorus gracilirostris, UniProt Q9GV45, A31E/A60N/A81I/F95D/I117V/K70R/L54V/L99Q/M102K/N193R/P142E/Q151K/Q38R/Q45L/V71I/Y165I); experiment: Luminescence of compounds with purified L27V02 enzyme; assay type: biochemical; conditions: 20 μM compound, 36 pM L27V02, pH 7, 3 min
T1 construct: The N-terminus of the OgLuc variant L27V is methionine, valine and phenylalanine, i.e., MVF; made in house
Experimental: Compounds PBI-4525, PBI-4540 and PBI-4541 were screened for their ability to detect luminescence. […] The assay reagent was then mixed with 36 pM purified L27V02 enzyme (described in Example 25B), in DMEM without Phenol Red and 0.1% PRIONEX®. As a control, assay buffer with 20 μM PBI-3939 or PBI-4528 was used. Luminescence was measured as previously described 3 min after the assay reagent was added to the enzyme mixture.

HEK293 cells [3] = conditions: human, 24 h
[4] = assay type: physicochemical, E. coli; conditions: 60° C., assay buffer 100 mM MES pH 6.0
Experimental: Aliquots were removed at different time-points and placed on dry ice to freeze the samples. […] Luminescence was measured on a GLOMAX® luminometer (Promega Corp.).
The thermal stability of the variants at 60° C. was examined as described above, except the assay buffer contained 100 mM MES pH 6.0 instead of HEPES.

[5] = assay type: biochemical, E. coli
Experimental: The signal stability of 15C1 with PBI-3945 and 9B8 with PBI-3889 was measured and compared to IV. E. coli containing plasmid DNA encoding 15C1, 9B8, or IV were grown and induced as described previously in 8-well replicates. Cells were lysed using a lysis buffer containing of 300 mM HEPES pH 8.0, 0.3× Passive Lysis Buffer (“PLB”; Promega Corp. Cat. No. E194A), 0.3 mg/mL lysozyme, and 0.003 U/μL RQ1 DNase. Lysates were diluted 1:1000 in lysis buffer and measured for luminescence using a TECAN® INFINITE® F500 luminometer. Measurements were taken immediately after the addition to 10 μL of diluted lysate sample of 50 μL of “Glo” 0.5% TERGITOL assay buffer (“0.5% TERGITOL”), which contained 150 mM KCl, 1 mM CDTA, 10 mM DTT, 100 mM thiourea, 0.5% TERGITOL® NP-9 (v/v), and 20 μM of either novel coelenterazines PBI-3945 or PBI 3889.
The signal stability of the variants was determined by re-reading the plate every 30 seconds for a length of time after the addition of the assay buffer to the sample. The signal half-life was determined from these measurements using methods known in the art. The average signal half-life was compared between the variants and IV. […] At t=10 min, luminescence for 15C1 with PBI-3945 and 9B8 with PBI-3889 were equivalent.
E. coli lysates containing the variants were prepared and analyzed as described previously except the assay buffer contained 0.25% TERGITOL® NP-9 (v/v), 100 mM MES pH 6.0, 1 mM CDTA, 150 mM KCl, 35 mM thiourea, 2 mM DTT, and 20 μM PBI-3939.

[6] = Enzyme kinetics of OgLuc variants (Km, Vmax); assay type: biochemical, E. coli; conditions: PBI-3939, average of three replicates
Experimental: Using methods known in the art, enzyme kinetic assays measuring luminescence were performed with the lysates of E. coli containing N and the IV variants 15C1, 9B8, 9F6, and 9A3. […] Two fold serial dilutions of PBI-3939 in the assay buffer described previously in Example 26 were assayed with the diluted lysates. […] Variants 9B8 and 9F6 had higher Km values compared to IV while Km values for the other variants were unchanged.
Luminescence was measured on a TECAN® INFINITE® F500 luminometer.
The enzyme kinetics values were determined for the OgLuc variants as described previously, except luminescence was measured using a GLOMAX® luminometer. Three replicates were used for each variant.

[7] = Luminescence of OgLuc variants expressed in HEK293 cells; assay type: cell-based, human
Experimental: (§1) The PCR library in the pF4Ag-based non-fusion background was screened for additional variants with increased luminescence compared to 9B8 opt+K33N+170G (SEQ ID NOs: 68 and 69). Selected variants were then assayed in HEK293 and NIH3T3 cells. For each cell type, 15,000 cells were plated and grown overnight at 37° C. The next day, the cells were transfected as described in Example 25 with 10 ng pGL4.13 (Promega Corp.) as a transfection control and 100 ng of the OgLuc test DNA. The media was removed, and the cells were lysed with 100 μL of lysis buffer as described in Example 25 except the lysis buffer contained 100 mM MES pH 6.0 instead of HEPES, and luminescence measured using a GLOMAX® Luminometer.
(§2) Based on the above data, further combination variants were designed and generated (see Table 10) in the context of the pF4Ag-based non-fusion vector background without the 170G. The variants were analyzed in E. coli, HEK293 and NIH3T3 cells as described above and compared to 9B8 opt+K33N. The variants were also examined for luminescence with native coelenterazine.
(§3) The brightness of the variants expressed in HEK293 and NIH3T3 cells was measured as described previously. The luminescence of the variants was normalized to the luminescence generated by 9B8 opt (Table 27).
(§4) The variants 9B8 opt+K33N+T39T+K43R+Y68D (“V2”; SEQ ID NOs: 92 and 93), 9B8 opt+K33N+L27V+K43R+Y68D (SEQ ID NOs: 339 and 340), 9B8 opt+K33N+L27V+T39T+K43R+S66N (SEQ ID NOs: 341 and 342), and 9B8 opt+K33N+L27V+T39T+K43R+Y68D (“L27V”; SEQ ID NOs: 88 and 89) were subcloned into the Id-OgLuc-HT7 sandwich background as described above and assayed in HEK293 and NIH3T3 cells as described above. The luminescence generated by the sandwiched variants were compared to the luminescence generated by the […] sandwich (SEQ ID NOs: 59 and 60) (Table 38). The L27V sandwich (SEQ ID NOs: 90 and 91) and V2 sandwich (SEQ ID NOs: 94 and 95) had at least 1.3× fold-increase in luminescence in HEK293 and NIH3T3 cells.
(§5) The sandwich and non-sandwich versions of the variants V2, 9B8 opt+K33N+L27V+K43R+Y68D, 9B8 opt+K33N+L27V+T39T+K43R+S66N, and L27V were assayed in HEK293 and NIH3T3 cells as described in Example 37. The luminescence generated by the non-sandwiched variants was compared to the luminescence generated by the sandwiched variants (Table 39).

[8] = Brightness and relative specificity of 9B8 and 9B8 opt+K33N variants in E. coli lysates; assay type: biochemical
Experimental: Additional variants with improved relative specificity to novel PBI-3939 were generated as described previously by saturating amino acid positions 18, 68, 72, 75, and 90 in variant 9B8. […] Relative specificity was determined from the ratio of the luminescence of the variant with PBI-3939 to the luminescence of the variant with native coelenterazine, normalized to the ratio of corresponding luminescence of 9B8. Table 8 lists 9B8 variants (“Variant”) with at least 1.1× fold-increase in relative specificity for PBI-3939. […] 9B8 variants with amino acid substitutions K, D, F, G, Y, W, and H at position 18 had the highest fold improvement in relative specificity.
A new OgLuc library was created using 9B8opt+K33N as a starting template. The random library was created using DIVERSIFY® PCR Random Mutagenesis Kit (ClonTech; Catalog #630703). Condition 5 (as listed in the user manual) was used to generate additional variants, and the average mutation rate was calculated to be 2.6 mutations per gene by compiling sequence data from 83 randomly selected clones. This PCR library was cloned into the pF4Ag-based, non-fusion vector background described previously and the sandwich background, i.e., Id-OgLuc-HT7 (described in Example 45). Variants in the pF4Ag-base non-fusion vector background are designated with (NF). Variants in the sandwich vector background are designated with (F). In order to clone the PCR product into both vectors, an amino acid, i.e., a glycine, was appended to the variant sequence in pF4Ag, generating a new position 170 in the OgLuc variant (“170G”). The 170G is present in the sandwich construct, but in this case is considered part of the linker between OgLuc and HT7. For each library, 4,400 E. coli clones were assayed as described previously with the following exceptions. […] The assay buffer contained 100 mM MES pH 6.0 instead of HEPES, and 35 mM thiourea. The assay volumes were as follows: 10 μL cells, 40 μL lysis buffer, and 50 μL assay buffer.
as §2
E. coli lysates containing the variants were prepared and analyzed as described previously. Luminescence generated from the lysates was measured using the novel PBI-3939 and native coelenterazine as substrates. The luminescence of the variants was normalized to the luminescence generated by 9B8 opt (Table 12). The relative specificity of the variants for PBI-3939 and native coelenterazine was calculated by dividing the luminescence of the variants using PBI-3939 as a substrate with the luminescence of the variants using native coelenterazine as a substrate (Table 12).

[9] = Luminescence of OgLuc variants expressed in NIH3T3 cells; assay type: cell-based
Experimental: as §1, §2, §3, §4, §5

[10] = relative specificity for PBI-3939

## O=c1c(Cc2ccco2)nc2c(Cc3ccccc3)[nH]c(-c3ccc(O)cc3)cn1-2 [PBI-3945]
[1]
  Stability (pH 8) (T90 in hrs): 3.3 hrs
HEK293 cells [2]
  Viability (normalized to vehicle (DMSO) control) (%): 100%

## O=c1c(Cc2cccs2)nc2c(Cc3ccccc3)[nH]c(-c3ccc(O)cc3)cn1-2 [PBI-4002]
[1]
  Stability (pH 8) (T90 in hrs): 3.5 hrs
HEK293 cells [2]
  Viability (normalized to vehicle (DMSO) control) (%): 100%

## Cn1ccnc1Cc1nc2c(Cc3ccccc3)[nH]c(-c3ccccc3)cn-2c1=O [PBI-4525, 8-benzyl-2-((1-methyl-1H-imidazol-2-yl)methyl)-6-phenylimidazo[1,2-a]pyrazin-3(7H)-one]
L27V02 enzyme
  RLU: 20,655 RLU

## Oc1ccc(Cc2nc3c(Cc4ccccc4)nc(-c4ccc(O)cc4)cn3c2O)cc1 [Native coelenterazine, coelenterazine, reference compound]
other
  Stability (pH 8) (T90 in hrs): 1.7 hrs
HEK293 cells [3]
  Viability (normalized to vehicle (DMSO) control) (%): 100%

## Cc1[nH]c(-c2ccccc2)cn2c(=O)c(Cc3ccc(O)cc3)nc1-2 [PBI-3896, 2-(4-hydroxybenzyl)-8-methyl-6-phenylimidazo[1,2-a]pyrazin-3(7H)-one]
other
  Stability (pH 8) (T90 in hrs): 2.8 hrs

## O=c1c(Cc2ccccc2)nc2c(Cc3ccccc3)[nH]c(-c3ccccc3)cn1-2 [Coelenterazine hh, bis-deoxycoelenterazine, reference compound]
[1]
  Stability (pH 8) (T90 in hrs): 2.0 hrs
HEK293 cells [2]
  Viability (normalized to vehicle (DMSO) control) (%): 87%

## O=c1c(Cc2cccs2)nc2c(Cc3ccccc3)[nH]c(-c3ccccc3)cn1-2 [PBI-3889, 8-benzyl-6-phenyl-2-(thiophen-2-ylmethyl)imidazo[1,2-a]pyrazin-3(7H)-one]
other
  Stability (pH 8) (T90 in hrs): 2.9 hrs
HEK293 cells [3]
  Viability (normalized to vehicle (DMSO) control) (%): 90%

## Cn1ccnc1CC1=NC2=C(Cc3ccccc3)NC(c3ccccc3)(c3ccc(O)cc3)CN2C1=O (stereo not shown) [PBI-4540, 8-benzyl-6-(4-hydroxyphenyl)-2-((1-methyl-1H-imidazol-2-yl)methyl)-6-phenylimidazo[1,2-a]pyrazin-3(7H)-one]
L27V02 enzyme
  RLU: 909 RLU

## O=c1c(Cc2ncc[nH]2)nc2c(Cc3ccccc3)[nH]c(-c3ccccc3)cn1-2 [PBI-4541, 2-((1H-imidazol-2-yl)methyl)-8-benzyl-6-phenylimidazo[1,2-a]pyrazin-3(7H)-one]
L27V02 enzyme
  RLU: 5,676 RLU

B1: L27V, K43R, Y68D: 9B8 opt+K33N+L27V+K43R+Y68D (protein)
chain: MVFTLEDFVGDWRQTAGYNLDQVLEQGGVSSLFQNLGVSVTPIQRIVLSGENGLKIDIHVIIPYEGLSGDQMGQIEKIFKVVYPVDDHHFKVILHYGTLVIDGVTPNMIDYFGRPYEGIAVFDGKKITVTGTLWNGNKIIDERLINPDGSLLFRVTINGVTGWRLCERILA
[4]
  ½ life hours: 23.2 h
[5]
  signal half life: 2.03 h
[6]
  Km: 13.7 µM
  Vmax: 130,000,000 RLU/0.5 sec
[7]
  Fold-Decrease in Luminescence in the Presence of Sandwich Background: HEK 293: 8
[7]; luminescence, PBI-3939
  Fold over 9B8 opt + K33N: HEK293: 0.9
[7]; normalized to 9B8 opt
  Increase in Luminescence: HEK293: 1.6
[7]; [10]
  Fold over Native Coelenterazine: HEK293: 101
[8]; bacterial lysates, PBI-3939 luminescence divided by native coelenterazine luminescence
  Fold over coelenterazine: 110
[8]; bacterial lysates, luminescence normalized to 9B8 opt
  Fold over 9B8: 1.3
[8]; in the three cell types examined
  fold-increase in relative specificity over 9B8 opt+K33N: 5 ×
[8]; luminescence, PBI-3939
  Fold over 9B8 opt + K33N: E. coli: 1.2
[8]; [10]
  Fold over Native Coelenterazine: E. coli: 98.3
[9]
  Fold-Decrease in Luminescence in the Presence of Sandwich Background: NIH 3T3 cells: 22
[9]; luminescence, PBI-3939
  Fold over 9B8 opt + K33N: NIH3T3: 0.8
[9]; normalized to 9B8 opt
  Increase in Luminescence: NIH3T3: 1.5
[9]; [10]
  Fold over Native Coelenterazine: NIH3T3: 98
